Data on twelve substances can be found in patent US20200024330A1.

Test in all cases: cell-based or functional assay
Assay [1] concerns the target HIV-1 Env of isolate MG RM-AG-005 (HIV-1).
Assay [2] addresses HIV-1 MGRM-D-018 envelope glycoprotein (Env) on pseudovirus (HIV-1).
Assay [3] deals with HIV-1 Env of isolate MGRM-F1-021 (HIV-1).
The target of assay [4] is HIV-1 APV13 envelope glycoprotein (Env) on pseudovirus (HIV-1).
Assay [5] has as its target HIV-1 MGRM-Chronic-B-010 Env (pseudovirus) (HIV-1).
Assay [6] concerns the target HIV-1 Env of isolate MG RM-D-019 (subtype D) (HIV-1).
The target in assay [7] is HIV-1 TRO.11 Env (pseudovirus) (HIV-1).
The target of assay [8] is HIV-1 JR-CSF Env D113A (HIV-1 (isolate JR-CSF)) (UniProt P20871).
Assay [9] deals with HIV-1 Env of isolate MG RM-AG-006 (HIV-1).
Assay [10] has as its target HIV-1 Env of isolate MGRM-G-025 (HIV-1).
Assay [11] has as its target HIV-1 Env of isolate MGRM-C-025 (pseudovirus) (HIV-1 isolate MGRM-C-025, subtype C).
Assay [12] concerns the target HIV-1 Env of isolate 93MW959 (pseudovirus) (HIV-1 isolate 93MW959, subtype C).
For assay [13], the target named is HIV-1 Env of isolate 92UG005 (subtype D) (HIV-1).
Assay [14] has as its target HIV-1 MGRM-D-001 envelope glycoprotein (Env) on pseudovirus (HIV-1).
Assay [15] has as its target HIV-1 Env of isolate MGRM-C-017 (pseudovirus) (HIV-1 isolate MGRM-C-017, subtype C).
The target in assay [16] is HIV-1 APV6 envelope glycoprotein (Env) (HIV-1).
Assay [17] has as its target HIV-1 Env of isolate CMU02 (HIV-1).
Assay [18] concerns the target HIV-1 Env of isolate VLGCA1 (HIV-1).
For assay [19], the target named is HIV-1 Env of isolate MGRM-A-003 (HIV-1).
Assay [20] concerns the target HIV-1 MGRM-C-027 envelope glycoprotein (Env) (HIV-1).
For assay [21], the target named is HIV-1 94UG103 Env (on pseudovirus) (HIV-1).
For assay [22], the target named is HIV-1 MGRM-A-010 Env (on pseudovirus) (HIV-1).
The target in assay [23] is HIV-1 92TH021 Env (on pseudovirus) (HIV-1).
In assay [24] the target is HIV-1 envelope glycoprotein (Env) of isolate MGRM-C-027, on pseudovirus (HIV-1).
The target in assay [25] is HIV-1 Env of isolate MGRM-G-014 (subtype G) (HIV-1).
Assay [26] concerns the target HIV-1 MGRM-C-026 Env (on pseudovirus) (HIV-1).
Assay [27] has as its target HIV-1 Env of isolate MGRM-F1-006 (HIV-1).
Assay [28] concerns the target HIV-1 Env of isolate MGRM-D-024 (HIV-1).

Broadly, the IC50 is the concentration that inhibits the measured activity by half.

PGT-141 (4964_G22; 4993_K13) (antibody), sequence (VH): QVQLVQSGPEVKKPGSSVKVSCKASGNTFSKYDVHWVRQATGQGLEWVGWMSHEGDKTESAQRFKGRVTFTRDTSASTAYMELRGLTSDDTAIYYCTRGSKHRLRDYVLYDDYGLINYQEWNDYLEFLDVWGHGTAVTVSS
PGT-141 (4964_G22; 4993_K13) (antibody), sequence (VL): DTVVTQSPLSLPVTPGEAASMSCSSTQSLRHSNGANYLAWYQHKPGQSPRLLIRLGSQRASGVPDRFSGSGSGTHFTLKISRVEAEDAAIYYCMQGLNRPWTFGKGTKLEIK
PGT-143 (4980_N08) (antibody), sequence (VH): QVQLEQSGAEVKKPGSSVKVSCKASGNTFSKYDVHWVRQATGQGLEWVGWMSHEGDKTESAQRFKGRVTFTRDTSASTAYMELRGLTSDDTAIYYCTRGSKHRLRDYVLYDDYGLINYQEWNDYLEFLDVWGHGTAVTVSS
PGT-143 (4980_N08) (antibody), sequence (VL): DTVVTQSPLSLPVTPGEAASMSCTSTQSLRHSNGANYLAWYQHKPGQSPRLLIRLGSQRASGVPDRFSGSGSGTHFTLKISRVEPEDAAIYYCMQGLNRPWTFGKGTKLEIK
PGT-142 (4995_E20) (antibody), sequence (VH): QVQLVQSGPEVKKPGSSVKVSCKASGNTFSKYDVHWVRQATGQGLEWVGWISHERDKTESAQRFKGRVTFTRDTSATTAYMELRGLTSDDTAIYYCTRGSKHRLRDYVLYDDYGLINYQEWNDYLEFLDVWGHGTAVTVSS
PGT-144 (4970_K22) (antibody), sequence (VH): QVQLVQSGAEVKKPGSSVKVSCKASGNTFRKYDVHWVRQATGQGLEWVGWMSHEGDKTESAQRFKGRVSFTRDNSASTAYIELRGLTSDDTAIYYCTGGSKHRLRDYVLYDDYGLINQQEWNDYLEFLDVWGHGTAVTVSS
PGT-144 (4970_K22) (antibody), sequence (VL): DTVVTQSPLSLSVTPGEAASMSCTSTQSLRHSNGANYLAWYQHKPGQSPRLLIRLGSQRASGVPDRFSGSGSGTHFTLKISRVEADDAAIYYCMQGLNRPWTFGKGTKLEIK

4858_P08 (PGT-123) (antibody): the neutralization IC50 in assay [1] was determined as 0.149 mg/L; in [9], 0.014 mg/L. The IC50 (ug/ml), neutralizing activity in [2] turned out to be 0.0047 µg/mL; in [4], 0.222 µg/mL; in assay [14] it was 0.215 µg/mL. Moreover, the IC50, pseudovirus neutralization was determined as 0.0047 mg/L in assay [2]; 0.222 mg/L in [4]; 0.009 mg/L in assay [5]; 0.008 mg/L in assay [7]; 0.046 mg/L in assay [10]; 0.215 mg/L in assay [14]. The results for the IC80, pseudovirus neutralization in [2], in assay [4] and in assay [14] were 0.0175 mg/L, 0.879 mg/L and 0.678 mg/L, respectively. Moreover, the IC90 (pseudovirus neutralization) in assay [2] turned out to be 0.0381 mg/L; in assay [4], 1.87 mg/L; in assay [14] it was 1.31 mg/L. Also, the IC95, pseudovirus neutralization in assay [2] was determined as 0.0791 mg/L; in assay [4] it was 3.5 mg/L; in assay [14], 2.33 mg/L. Also, in [3], the IC50 turned out to be 0.307 mg/L. Besides, the IC50 (µg/mL), pseudovirus neutralization in assay [6] is above 50 µg/mL; in [13] it was 9.79 µg/mL. Moreover, in assay [8], the Fold IC50 increase relative to wild-type was 1.1 fold. In addition, the IC50 (µg/mL) neutralization in assay [11] is 13.3 µg/mL; in [12] it was 0.011 µg/mL; in assay [15] it was 0.01 µg/mL.

With 4877_D15 (PGT-122) (antibody), the neutralization IC50 was 33.9 mg/L in assay [1] and 0.028 mg/L in [9]. Moreover, the values for the IC50 (ug/ml), neutralizing activity in assay [2], in [4] and in [14] were 0.0115 µg/mL, 0.992 µg/mL and 0.867 µg/mL, respectively. In addition, the IC50 in assay [3] was 2.3 mg/L. In addition, the IC50, pseudovirus neutralization worked out at 0.018 mg/L in [5], 0.011 mg/L in assay [7] and 0.079 mg/L in assay [10]. The IC50 (µg/mL), pseudovirus neutralization in assay [6] and in assay [13] was above 50 µg/mL in each case. Moreover, the IC50 (µg/mL) neutralization is 8.69 µg/mL in assay [11], 0.016 µg/mL in assay [12] and 0.015 µg/mL in assay [15].

On to 5123_A06 (PGT-125) (antibody), for which the neutralization IC50 was above 50 mg/L in assay [1]; 0.0382 mg/L in [2]; 0.0128 mg/L in assay [4]; 0.008 mg/L in assay [9]; 2.31 mg/L in assay [14]. Besides, the values for the IC50 (ug/ml), neutralizing activity in assay [2], in assay [4] and in [14] were 0.0382 µg/mL, 0.0128 µg/mL and 2.31 µg/mL, respectively. In addition, the neutralization IC80 in assay [2] was 0.144 mg/L; in assay [4] it was 0.0414 mg/L; in assay [14], above 10 mg/L. The neutralization IC90 in [2] was 0.339 mg/L; in assay [4] it was 0.0821 mg/L; in [14], above 10 mg/L. For the same substance, the neutralization IC95 is 0.892 mg/L in [2], 0.154 mg/L in assay [4] and above 10 mg/L in assay [14]. In [3], this substance showed a concentration for half-maximal inhibition (IC50) above 50 mg/L. Further, the IC50, pseudovirus neutralization in assay [5] was 0.006 mg/L; in assay [7], 0.111 mg/L; in assay [10], above 50 mg/L. Moreover, the values for the IC50 (µg/mL), pseudovirus neutralization in assay [6] and in assay [13] were 0.049 µg/mL and above 50 µg/mL, respectively. The Fold IC50 increase relative to wild-type in assay [8] turned out to be 1.1 fold. The IC50 (µg/mL) neutralization stood at 42.5 µg/mL in assay [11], 37.5 µg/mL in [12] and 2.36 µg/mL in [15].

As to 5141_B17 (PGT-126) (antibody), the neutralization IC50 came out at 1.21 mg/L in assay [1] and 0.01 mg/L in [9]. Also, the IC50 (ug/ml), neutralizing activity in assay [2] was found to be 0.0093 µg/mL; in assay [4], 0.012 µg/mL; in [14], 0.0639 µg/mL. In assay [3], this substance yielded an IC50 above 50 mg/L. Also, the IC50, pseudovirus neutralization stood at 0.005 mg/L in assay [5], 0.041 mg/L in assay [7] and 17.1 mg/L in [10]. The IC50 (µg/mL), pseudovirus neutralization in [6] is above 50 µg/mL; in assay [13], 0.037 µg/mL. For the same substance, in assay [8], the Fold IC50 increase relative to wild-type came out at 1.2 fold. Further, the IC50 (µg/mL) neutralization in [11] was 0.786 µg/mL; in [12] it was 9.44 µg/mL; in assay [15], 0.17 µg/mL.

Regarding 5145_B14 (PGT-127) (antibody), the results for the neutralization IC50 in [1] and in [9] were above 50 mg/L and 0.021 mg/L, respectively. The substance also displayed a concentration for half-maximal inhibition (IC50) in [3] above 50 mg/L. Further, the values for the IC50, pseudovirus neutralization in [5], in assay [7] and in assay [10] were 0.019 mg/L, 0.079 mg/L and 19.3 mg/L, respectively. The IC50 (µg/mL), pseudovirus neutralization in [6] is above 50 µg/mL; in [13] it was 1.11 µg/mL. Further, in [8], the Fold IC50 increase relative to wild-type is 0.3 fold. In addition, the IC50 (µg/mL) neutralization in assay [11] was above 50 µg/mL; in assay [12], 6.95 µg/mL; in [15], 3.4 µg/mL.

In the case of PGT-121 (antibody), the IC50 neutralization in assay [16] was found to be 0.0423 mg/L; in [20] it was 0.0094 mg/L. Further, the IC50 (µg/mL), pseudovirus neutralization in assay [17] was above 50 µg/mL; in assay [18] it was above 50 µg/mL; in assay [19] it was 0.435 µg/mL.

As for PGT-122 (antibody), the IC50 neutralization in [16] is 0.0851 mg/L; in [20], 0.0388 mg/L. The IC50 (µg/mL), pseudovirus neutralization in assay [17] is above 50 µg/mL; in assay [18] it was above 50 µg/mL; in assay [19] it was 3.79 µg/mL.

For the substance PGT-141 (4964_G22; 4993_K13) (antibody), the IC50 (ug/ml), pseudovirus neutralization was above 10 µg/mL in assay [21], 0.0563 µg/mL in assay [22], 0.0019 µg/mL in assay [23] and above 10 µg/mL in assay [26]. Besides, the IC50, pseudovirus neutralization in assay [24] was found to be 3.27 mg/L. The substance further gave a neutralization IC50 in assay [25] of 0.222 mg/L.

Regarding PGT-142 (4995_E20) (antibody), the IC50 (ug/ml), pseudovirus neutralization in [21] is above 10 µg/mL; in [22], 0.0578 µg/mL; in assay [23] it was 0.0022 µg/mL; in assay [26], above 10 µg/mL. For the same substance, the IC50, pseudovirus neutralization in assay [24] came out at 0.792 mg/L. In [25], this substance came in with a neutralization IC50 of 0.076 mg/L.

PGT-143 (4980_N08) (antibody): the IC50 (ug/ml), pseudovirus neutralization in [21] is above 10 µg/mL; in assay [22], 0.0657 µg/mL; in assay [23], 0.0028 µg/mL; in [26], above 10 µg/mL. Also, the IC50, pseudovirus neutralization in assay [24] stood at 0.598 mg/L. Moreover, the neutralization IC50 in [25] was determined as 0.107 mg/L.

On to PGT-144 (4970_K22) (antibody), for which the IC50 (ug/ml), pseudovirus neutralization in [21] is above 10 µg/mL; in assay [22] it was 4.02 µg/mL; in assay [23] it was 0.0934 µg/mL; in assay [26] it was above 10 µg/mL. Further, the IC50, pseudovirus neutralization in assay [24] was above 50 mg/L. Moreover, the neutralization IC50 in assay [25] is 0.562 mg/L.

Turning to PGV04 (antibody), the IC50 (µg/mL), pseudovirus neutralization in assay [17] is 1.24 µg/mL; in assay [18], 0.024 µg/mL; in [27] it was above 50 µg/mL; in assay [28] it was above 50 µg/mL. Moreover, the IC50 in assay [19] amounted to 0.128 mg/L. Further, the neutralization IC50 in assay [25] amounted to 0.056 mg/L.
